assay: yeast display, Sf9 membrane polyspecificity reagent, FACS + sequencing; frameworks hold sequencing errors
Summary of the method: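 Galactose induction of a Saccharomyces cerevisiae BJ5465 synthetic nanobody display library ran 36–48 hours. The cells were then stained for 1 hour at 4 °C with 10% biotinylated, detergent-solubilized Sf9 membrane reagent, pulled down on streptavidin microbeads and FACS-sorted into low and high (top ~1%) gates on expression and reagent-binding fluorescence. Labels for polyreactivity follow the gate of origin.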

| Sequence | polyreactivity (PSR sort gate) |
| --- | --- |
| QVHLVESGGGLVQAGGSLRLSCAASGLTFRYYAMGWYRPAPGKERELVAAISWSGGSTYYADSVKGRFTISRDNAKNTVYLQMNSQKPEDTAVYDCNTVGRSSSLSVFLIGYGYWGQATQVTVSS | high polyreactivity |
| QVHLVESGGGLVQAGGSLRLSCAASGLTFYGNAMGCYRQAPGKERELVAAISSSGGTTYYADSVKGRFTISRDNAKNTVYLQMNSLKPEDTAVYYCAARPSGGFESTRTRDYWGQGTQVTVSS | low polyreactivity |
| QVHLVESGGGLVQAGGSLRLSCAASGLTFYWYVMGWYRQAPGKERELVAVITGSGGSTYYADSVKGRFTISRDNAKNTVYLQMNSLKPEDTAAYYCARGGRYNRYYYWGQGTQVTVSS | high polyreactivity |
| QVHLVESGGGLVQAGGSLRLSCAASGNIFGLYAMGWYRQAPWKERELVAAISWRGGNTYYADYVKGRFTISRDNAKNTVYLQMNSLKPEDTAVYYCAAEAGYWYDYWGQGTQVTVSS | high polyreactivity |
| QVHLVESGGGLVQAGGSLRLSCAASGNIFYPNAMGWYRQAPGKERELVAAISSSGGSTYYADSVKGRFTISRDNAKNTVYLQMNSLKPEDTAVYYCNAYRQYRYDYWGQGTQVTVSS | low polyreactivity |
| QVHLVESGGGLVQAGGSLRLSCAASGNIIYWNGMGWYRKAPGKEREFVADITASGGSTYYADSVKGRFTISRDNAKNTVYLQMNSLIPEDTAVYYCAAQGVDSYYENDYWGQGTQVTVSS | high polyreactivity |
| QVHLVESGGGLVQAGGSLRLSCAASGRGYYALGWYRQAPGKERELVAAISRGGNTKYADSVKGRFTISRDNAKNSVYLQMNSLKPEDTAVYYCAAYAYSYELYYWGQGTQVTVSS | high polyreactivity |
| QVHLVESGGGLVQAGGSLRLSCAASGRIFARNAKGWYRQAPGKERELVATIRVGGGSTYYADSVKGRYTISRDNAKNTVYLQMNSLKPEDTAVYYCAVRQLYSYPGDRRGYYWGQGTQVTVSS | low polyreactivity |
| QVHLVESGGGLVQAGGSLRLSCAASGRIFDYYTMGWYRQAPGKERELVAAITWIGGSTYYEDSVKGRFTISRDNAKNTVYLQMNSLKPEDTAVYYCYAEGTALPYRADTVGGYYYWGQGTQVTVSS | low polyreactivity |
| QVHLVESGGGLVQAGGSLRLSCAASGRIFKKYAMGWYRQAPGKESELVATISSGGSTYYADSVKGRFTISRDNAKNTVYLQMNSLNPEDTAVYYCARREYVRRDYFVTTYDYWGQGTQVTVSS | low polyreactivity |
| QVHLVESGGGLVQAGGSLRLSCAASGRIFRQYAMGWYRQAPGKERELVAAISYSGGSTYYADSVKGRFTISRDYAKNTVYFQMNSLKPEDTAVYYCAATRWVPATGKFGYWGQGTQVTVSS | high polyreactivity |
| QVHLVESGGGLVQAGGSLRLSCAASGRIFTYYAMAWYRQAPGKEREMVAGITGSGASTYYADSVKGRFTISRDNAKNTVYLQMNSLKPEDTAVYYCNAPYVIRPFRGRYDYWGQGTQVTVSS | high polyreactivity |
| QVHLVESGGGLVQAGGSLRLSCAASGRIFYGYVMGWYRQAPGTEREFVAAITWSAGSTYYADSVKGRFTISRDNAKNTVYLQMNSLKPEDTALYYCADGGGHYQEYLMEDYWGQGTQVTVSS | high polyreactivity |
| QVHLVESGGGLVQAGGSLRLSCAASGRIMVHNAMGWYRQAPGKERELVAVITARGASTYYADSVKGRFTISRDNAKNTVYLQMNSLKPEDTAVYYCATDKRPKYYNQYDYWGQGTQVTVSS | low polyreactivity |
| QVHLVESGGGLVQAGGSLRLSCAASGRIRFNAMGWYRQAPGKERELVAAITSDGGRTYYADSVKGRFTISRDNAKNTVYLQMNSLKPEDTAVYYCNTDYILWGDYDYWGQGTQVTVSS | low polyreactivity |
| QVHLVESGGGLVQAGGSLRLSCAASGRLLVLNDMGWYRPEPGKVMELVADITSGGSTYYADSVKGRFTISRDNAKKTDYLQMNSLKPEDPAVYYCAADWNTYPDYQQSYFVSYEYNYWGQGTQVTVSS | low polyreactivity |

| Sequence | polyreactivity (PSR sort gate) |
| --- | --- |
| QVHLVESGGGLVQAGGSLRLSCAASGRTFDDYAMGWYRQAPGKERELVAAISSSGGSTYYADSVKGRFTISRDNAKNTVYLQMNSLKPEDTAVYYCAADYDWGYWYDYWGQGTQVTVSS | low polyreactivity |
| QVHLVESGGGLVQAGGSLRLSCAASGRTFDRNAMGWYIQAPGKERELVAAISRNGGSTYYADSVKGRFTISRDNAKNTVYLQMNSLKPEDTAVYYCAAPRSVYDVARGDYWGQGTQVTVSS | high polyreactivity |
| QVHLVESGGGLVQAGGSLRLSCAASGRTFETYAMGWYRQSPGKERELVAAITTSGGTTYYADSVKGRFTISRDNAKNTVYLQMKSLKPEDTAVYYCAADPWIEDTYGSKAYYYWGQGTQVTVSS | low polyreactivity |
| QVHLVESGGGLVQAGGSLRLSCAASGRTFGRKAMGWYRQAPGKERELVASITKRGGSTYYADSVKGRFTISRDNAKNTVYLQMNSLKPVDTAVYYCAVEAYDYWGQGTQVTVSS | high polyreactivity |
| QVHLVESGGGLVQAGGSLRLSCAASGRTFGTYAMGWYRQAPGKERELVAAISSGGSTNYADSVKGRFTISRGNAKNTVYLQMNSLKPEDTAVYYCAAQGYWTYWPYLLRLYDYWGQGTQVTVSS | low polyreactivity |
| QVHLVESGGGLVQAGGSLRLSCAASGRTFGWNVMGWYRQAPGKERELVAAISGSGGSTYYADSVKGRFTISRDNAKNTVYLQMMSLKPEDTAVYYCAKEYPWMPRSYEYWGQGTQVTVSS | low polyreactivity |
| QVHLVESGGGLVQAGGSLRLSCAASGRTFGWNVMGWYRQAPGKERELVAAISGSGGSTYYADSVKGRFTISRDNAKNTVYLQMNSLKPEVTAVYYCAALYGPGREYDYWGQGTQVTVSS | low polyreactivity |
| QVHLVESGGGLVQAGGSLRLSCAASGRTFHYYAMGWYRQAPGKERELVAAISVSGGSTYYADSVKGRFTISRDNAKNTVYLQMNSLKPEDNAVYYCAADDYLVEHDYWGQGTQVTVSS | low polyreactivity |
| QVHLVESGGGLVQAGGSLRLSCAASGRTFPSYAMGWYRQAPGKERELVAAITRGGSTYYADSVKGRFTISRDNAKNTVYLQMNSLKPEDTAVYYCATRYGRARAYYYWGQGTQVTVSS | high polyreactivity |
| QVHLVESGGGLVQAGGSLRLSCAASGRTFRIYAMGWYRPAPGKERELVAAISRSSTSTYYADSVKGRFTISRDNAKNTVYLQMNSLKPEDTAVYYCAAVVTVQYSQPYDHWGQGTQVTVSS | high polyreactivity |
| QVHLVESGGGLVQAGGSLRLSCAASGRTFTRYTMGCYRQAPGKESELVAAISRRGGSTYYADSVKGRFTISRHNAKNTVYLQMNSLKPEDTAFYYCNADYVPGRPSFIYDYWGQGTQVTVSS | high polyreactivity |
| QVHLVESGGGLVQAGGSLRLSCAASGRTFYPFGMGWYRQATGKERELVATITYSGARTYYADTVKGRFTISRDNAKNTVYLQMNILKPEDTAVYYCAAGYYWGIGTGFDYWGQGTQVTVSS | high polyreactivity |
| QVHLVESGGGLVQAGGSLRLSCAASGRTFYTYAMGWYRQATGKERELVAVIRRDGSTSYADSVKGRFTISRDNAKNTVFLQKNSLKPEDTAVYYCAVTRRGEYYWGQGTQVTVSS | high polyreactivity |
| QVHLVESGGGLVQAGGSLRLSCAASGRTLYDYAMEWYRQAPAKERELVAGITSGDSTYYADSVKGRFTISRDNAKNTVYLQMNSLKPEDTAVYYCAADSDTFYYTGYDYDYWGQGTQVTVSS | low polyreactivity |
| QVHLVESGGGLVQAGGSLRLSCAASGRTYARYTMAWYRQAPGKEREMVASITRGGSTYFADSVKGRFTISRDNAKNTVYLQMNSLKPGDTAVYYCAARFPQHNYWAMDYWGLGTQVTVSS | high polyreactivity |
| QVHLVESGGGLVQAGGSLRLSCAASGSIFEENAMGWYRQAPGKERELVAVISTRDGRTYYADSVKGRFTISRDNAKNTVYLQMNSLKPEDTAVYYCAASPDPYWRRMDYWGQGTQVTVSS | high polyreactivity |
